Results: publication PMC10786891, “Massively parallel profiling of RNA-targeting CRISPR-Cas13d”

Target: T1, EsCas13d, nuclease-dead (Eubacterium siraeum, UniProt B0MS50, R295A;H300A;R849A;H854A)
T1 sequence: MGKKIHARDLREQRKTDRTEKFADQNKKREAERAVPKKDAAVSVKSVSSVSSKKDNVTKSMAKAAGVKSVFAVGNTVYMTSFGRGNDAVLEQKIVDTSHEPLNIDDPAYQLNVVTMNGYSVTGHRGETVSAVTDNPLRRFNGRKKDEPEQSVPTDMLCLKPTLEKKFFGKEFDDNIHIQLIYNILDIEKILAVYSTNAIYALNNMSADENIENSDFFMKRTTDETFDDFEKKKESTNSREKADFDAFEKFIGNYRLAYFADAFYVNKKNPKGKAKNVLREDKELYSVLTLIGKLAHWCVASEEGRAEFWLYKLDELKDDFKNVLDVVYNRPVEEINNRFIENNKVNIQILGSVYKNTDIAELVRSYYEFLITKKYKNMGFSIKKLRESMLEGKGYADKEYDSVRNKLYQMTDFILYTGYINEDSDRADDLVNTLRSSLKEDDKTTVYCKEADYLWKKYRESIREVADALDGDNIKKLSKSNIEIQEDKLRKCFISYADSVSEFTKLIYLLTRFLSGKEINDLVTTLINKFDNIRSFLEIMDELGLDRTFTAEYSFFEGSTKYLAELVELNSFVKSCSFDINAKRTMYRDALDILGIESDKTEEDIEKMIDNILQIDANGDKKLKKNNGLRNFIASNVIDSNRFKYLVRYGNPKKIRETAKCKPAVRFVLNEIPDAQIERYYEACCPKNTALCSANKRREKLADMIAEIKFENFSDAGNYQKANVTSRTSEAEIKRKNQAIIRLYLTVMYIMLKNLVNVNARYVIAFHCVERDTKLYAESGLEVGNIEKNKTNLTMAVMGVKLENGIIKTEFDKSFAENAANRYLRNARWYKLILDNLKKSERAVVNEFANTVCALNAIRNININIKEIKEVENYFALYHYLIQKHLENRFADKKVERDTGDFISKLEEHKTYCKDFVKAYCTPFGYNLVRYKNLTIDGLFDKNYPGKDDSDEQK
Experiment: crRNA (strand 1, pre-loaded); Mg2+; 40 mM Tris-HCl pH 7.5, 150 mM NaCl, 6 mM MgCl2, 1 mM DTT, 0.1% Tween-20, 0.2 mg/ml BSA; 25 C; 10 min per concentration, then washed
Conditions: tags: His6-TwinStrep-SUMO cleaved; N-terminal SNAP kept (SNAP-Surface 488); label: 3' end held by stalled T7 RNA polymerase

B1: target 1 insC 3' of 22,insC 3' of 5 (mixed)
RNA 1: CACCCGUGCAAAAAUGCAGGGGUCUAAAACUGAGCGGAUAACCUCUCUAUGG
RNA 2: GGGAAUGGAUCCACAUCUACGAAUUCGUACCCAUAGAGAGGUUAUCCGCCUCACCGAGAUCGGAAGAGCACACGU
  Kd: 60 ± 30 nM

B2: target 1 U11A,G17U (mixed)
RNA 1: CACCCGUGCAAAAAUGCAGGGGUCUAAAACUGAGCGGAUAACCUCUCUAUGG
RNA 2: GGGAAUGGAUCCACAUCUACGAAUUCGUACCAUAUAGAGGAUAUCCGCUCACCGAGAUCGGAAGAGCACACGU
  Kd: 84 ± 29 nM

B3: target 2 MT 5'PFS GAC 3'PFS CAG (mixed)
RNA 1: CACCCGUGCAAAAUUGCAGGGGUCUAAAACCUUCUCCAAAUUGUUUCAUCCU
RNA 2: GGGAAUGGAUCCACAUCUACGAAUUCGACAGGAUGAAACAAUUUGGAGAAGCAGAGAUCGGAAGAGCACACGU
  Kd: 17 ± 4 nM

B4: target 2 MT 5'PFS AUU 3'PFS AUU (mixed)
RNA 1: CACCCGUGCAAAAUUGCAGGGGUCUAAAACCUUCUCCAAAUUGUUUCAUCCU
RNA 2: GGGAAUGGAUCCACAUCUACGAAUUCAUUAGGAUGAAACAAUUUGGAGAAGAUUAGAUCGGAAGAGCACACGU
  Kd: 5.5 ± 0.4 nM

B5: target 2 MT 5'PFS GUC 3'PFS UCU (mixed)
RNA 1: CACCCGUGCAAAAUUGCAGGGGUCUAAAACCUUCUCCAAAUUGUUUCAUCCU
RNA 2: GGGAAUGGAUCCACAUCUACGAAUUCGUCAGGAUGAAACAAUUUGGAGAAGUCUAGAUCGGAAGAGCACACGU
  Kd: 25.4 ± 3.3 nM

B6: target 2 MT 5'PFS AUU 3'PFS ACU (mixed)
RNA 1: CACCCGUGCAAAAUUGCAGGGGUCUAAAACCUUCUCCAAAUUGUUUCAUCCU
RNA 2: GGGAAUGGAUCCACAUCUACGAAUUCAUUAGGAUGAAACAAUUUGGAGAAGACUAGAUCGGAAGAGCACACGU
  Kd: 10.7 ± 1.3 nM

B7: target 2 MT 5'PFS UUA 3'PFS UAA (mixed)
RNA 1: CACCCGUGCAAAAUUGCAGGGGUCUAAAACCUUCUCCAAAUUGUUUCAUCCU
RNA 2: GGGAAUGGAUCCACAUCUACGAAUUCUUAAGGAUGAAACAAUUUGGAGAAGUAAAGAUCGGAAGAGCACACGU
  Kd: 17 ± 4 nM

B8: target 2 MT 5'PFS GUC 3'PFS UCG (mixed)
RNA 1: CACCCGUGCAAAAUUGCAGGGGUCUAAAACCUUCUCCAAAUUGUUUCAUCCU
RNA 2: GGGAAUGGAUCCACAUCUACGAAUUCGUCAGGAUGAAACAAUUUGGAGAAGUCGAGAUCGGAAGAGCACACGU
  Kd: 28 ± 6 nM

B9: target 2 MT 5'PFS CUC 3'PFS CAA (mixed)
RNA 1: CACCCGUGCAAAAUUGCAGGGGUCUAAAACCUUCUCCAAAUUGUUUCAUCCU
RNA 2: GGGAAUGGAUCCACAUCUACGAAUUCCUCAGGAUGAAACAAUUUGGAGAAGCAAAGAUCGGAAGAGCACACGU
  Kd: 1.72 ± 0.2 nM

B10: target 2 MT 5'PFS CUC 3'PFS CAU (mixed)
RNA 1: CACCCGUGCAAAAUUGCAGGGGUCUAAAACCUUCUCCAAAUUGUUUCAUCCU
RNA 2: GGGAAUGGAUCCACAUCUACGAAUUCCUCAGGAUGAAACAAUUUGGAGAAGCAUAGAUCGGAAGAGCACACGU
  Kd: 1.82 ± 0.19 nM

B11: target 2 MT 5'PFS GAG 3'PFS AAC (mixed)
RNA 1: CACCCGUGCAAAAUUGCAGGGGUCUAAAACCUUCUCCAAAUUGUUUCAUCCU
RNA 2: GGGAAUGGAUCCACAUCUACGAAUUCGAGAGGAUGAAACAAUUUGGAGAAGAACAGAUCGGAAGAGCACACGU
  Kd: 6.1 ± 1 nM

B12: target 2 MT 5'PFS GUC 3'PFS UCA (mixed)
RNA 1: CACCCGUGCAAAAUUGCAGGGGUCUAAAACCUUCUCCAAAUUGUUUCAUCCU
RNA 2: GGGAAUGGAUCCACAUCUACGAAUUCGUCAGGAUGAAACAAUUUGGAGAAGUCAAGAUCGGAAGAGCACACGU
  Kd: 17 ± 5 nM

B13: target 2 MT 5'PFS CAG 3'PFS ACU (mixed)
RNA 1: CACCCGUGCAAAAUUGCAGGGGUCUAAAACCUUCUCCAAAUUGUUUCAUCCU
RNA 2: GGGAAUGGAUCCACAUCUACGAAUUCCAGAGGAUGAAACAAUUUGGAGAAGACUAGAUCGGAAGAGCACACGU
  Kd: 6.2 ± 2.2 nM

B14: target 2 MT 5'PFS GAC 3'PFS CAA (mixed)
RNA 1: CACCCGUGCAAAAUUGCAGGGGUCUAAAACCUUCUCCAAAUUGUUUCAUCCU
RNA 2: GGGAAUGGAUCCACAUCUACGAAUUCGACAGGAUGAAACAAUUUGGAGAAGCAAAGAUCGGAAGAGCACACGU
  Kd: 6.2 ± 1.2 nM

B15: target 2 MT 5'PFS GGU 3'PFS CCG (mixed)
RNA 1: CACCCGUGCAAAAUUGCAGGGGUCUAAAACCUUCUCCAAAUUGUUUCAUCCU
RNA 2: GGGAAUGGAUCCACAUCUACGAAUUCGGUAGGAUGAAACAAUUUGGAGAAGCCGAGAUCGGAAGAGCACACGU
  Kd: 17.4 ± 1.8 nM

B16: target 2 MT 5'PFS GAG 3'PFS AAG (mixed)
RNA 1: CACCCGUGCAAAAUUGCAGGGGUCUAAAACCUUCUCCAAAUUGUUUCAUCCU
RNA 2: GGGAAUGGAUCCACAUCUACGAAUUCGAGAGGAUGAAACAAUUUGGAGAAGAAGAGAUCGGAAGAGCACACGU
  Kd: 5.6 ± 0.5 nM

B17: target 2 MT 5'PFS UUG 3'PFS CCA (mixed)
RNA 1: CACCCGUGCAAAAUUGCAGGGGUCUAAAACCUUCUCCAAAUUGUUUCAUCCU
RNA 2: GGGAAUGGAUCCACAUCUACGAAUUCUUGAGGAUGAAACAAUUUGGAGAAGCCAAGAUCGGAAGAGCACACGU
  Kd: 37 ± 10 nM

B18: target 2 MT 5'PFS GAC 3'PFS CAU (mixed)
RNA 1: CACCCGUGCAAAAUUGCAGGGGUCUAAAACCUUCUCCAAAUUGUUUCAUCCU
RNA 2: GGGAAUGGAUCCACAUCUACGAAUUCGACAGGAUGAAACAAUUUGGAGAAGCAUAGAUCGGAAGAGCACACGU
  Kd: 7.4 ± 1.2 nM

B19: target 2 MT 5'PFS GUC 3'PFS UCC (mixed)
RNA 1: CACCCGUGCAAAAUUGCAGGGGUCUAAAACCUUCUCCAAAUUGUUUCAUCCU
RNA 2: GGGAAUGGAUCCACAUCUACGAAUUCGUCAGGAUGAAACAAUUUGGAGAAGUCCAGAUCGGAAGAGCACACGU
  Kd: 42 ± 6 nM

B20: target 2 MT 5'PFS GAG 3'PFS AAA (mixed)
RNA 1: CACCCGUGCAAAAUUGCAGGGGUCUAAAACCUUCUCCAAAUUGUUUCAUCCU
RNA 2: GGGAAUGGAUCCACAUCUACGAAUUCGAGAGGAUGAAACAAUUUGGAGAAGAAAAGAUCGGAAGAGCACACGU
  Kd: 4.1 ± 0.6 nM

B21: target 2 MT 5'PFS AAG 3'PFS AAA (mixed)
RNA 1: CACCCGUGCAAAAUUGCAGGGGUCUAAAACCUUCUCCAAAUUGUUUCAUCCU
RNA 2: GGGAAUGGAUCCACAUCUACGAAUUCAAGAGGAUGAAACAAUUUGGAGAAGAAAAGAUCGGAAGAGCACACGU
  Kd: 3.7 ± 0.7 nM

B22: target 2 MT 5'PFS GAC 3'PFS CAC (mixed)
RNA 1: CACCCGUGCAAAAUUGCAGGGGUCUAAAACCUUCUCCAAAUUGUUUCAUCCU
RNA 2: GGGAAUGGAUCCACAUCUACGAAUUCGACAGGAUGAAACAAUUUGGAGAAGCACAGAUCGGAAGAGCACACGU
  Kd: 12.9 ± 2.4 nM

B23: target 2 MT 5'PFS GCG 3'PFS AAA (mixed)
RNA 1: CACCCGUGCAAAAUUGCAGGGGUCUAAAACCUUCUCCAAAUUGUUUCAUCCU
RNA 2: GGGAAUGGAUCCACAUCUACGAAUUCGCGAGGAUGAAACAAUUUGGAGAAGAAAAGAUCGGAAGAGCACACGU
  Kd: 9.9 ± 2.3 nM

B24: target 2 MT 5'PFS UGG 3'PFS AAA (mixed)
RNA 1: CACCCGUGCAAAAUUGCAGGGGUCUAAAACCUUCUCCAAAUUGUUUCAUCCU
RNA 2: GGGAAUGGAUCCACAUCUACGAAUUCUGGAGGAUGAAACAAUUUGGAGAAGAAAAGAUCGGAAGAGCACACGU
  Kd: 3.3 ± 0.4 nM

B25: target 2 MT 5'PFS GGU 3'PFS CCA (mixed)
RNA 1: CACCCGUGCAAAAUUGCAGGGGUCUAAAACCUUCUCCAAAUUGUUUCAUCCU
RNA 2: GGGAAUGGAUCCACAUCUACGAAUUCGGUAGGAUGAAACAAUUUGGAGAAGCCAAGAUCGGAAGAGCACACGU
  Kd: 24 ± 5 nM

B26: target 2 MT 5'PFS CGU 3'PFS CCG (mixed)
RNA 1: CACCCGUGCAAAAUUGCAGGGGUCUAAAACCUUCUCCAAAUUGUUUCAUCCU
RNA 2: GGGAAUGGAUCCACAUCUACGAAUUCCGUAGGAUGAAACAAUUUGGAGAAGCCGAGAUCGGAAGAGCACACGU
  Kd: ~40 nM

B27: target 2 MT 5'PFS CUC 3'PFS CAG (mixed)
RNA 1: CACCCGUGCAAAAUUGCAGGGGUCUAAAACCUUCUCCAAAUUGUUUCAUCCU
RNA 2: GGGAAUGGAUCCACAUCUACGAAUUCCUCAGGAUGAAACAAUUUGGAGAAGCAGAGAUCGGAAGAGCACACGU
  Kd: 1.93 ± 0.21 nM

B28: target 2 MT 5'PFS CUC 3'PFS CAC (mixed)
RNA 1: CACCCGUGCAAAAUUGCAGGGGUCUAAAACCUUCUCCAAAUUGUUUCAUCCU
RNA 2: GGGAAUGGAUCCACAUCUACGAAUUCCUCAGGAUGAAACAAUUUGGAGAAGCACAGAUCGGAAGAGCACACGU
  Kd: 3.9 ± 0.9 nM
